± gives the standard deviation.
Assay: protein stability index of a GFP-peptide fusion (GPS, HEK-293T) (PSI 1-6); higher = more stable
[1] = treatment: DMSO, c terminus: a fixed tail appended
[2] = treatment: MLN4924 1 uM, 8 h, c terminus: a fixed tail appended
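Further: 24-mer peptide tiles fused after GFP, lentivirally expressed, FACS-sorted into six equal bins by GFP/DsRed ratio, decoded by Illumina sequencing, PSI is the read-weighted mean bin number.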

Sequence | protein stability index [1] | protein stability index [2] | protein stability index (treatment: DMSO, c terminus: native) | protein stability index (treatment: MLN4924 1 uM, 8 h, c terminus: native)
PAVPEEILKRLLKEQHLWDVDLLD [DLC1] | 2.97 ± 0.55 | 3.12 ± 0.34 |  | 
CEALEDSDGRQDSPAGELPKTVQQ [MATN2] | 5.55 ± 0.33 | 5.56 ± 0.17 |  | 
MASSAASSEHFEKLHEIFRGLHED [VTI1B] | 4.29 ± 0.16 | 4.28 ± 0.1 |  | 
LENELDLKLVSFSKLCTSYSHSST [GOSR1] | 2.98 ± 0.13 | 2.93 ± 0.16 |  | 
CPTLIYRETYPRTPYVRWNYVAKN [SOAT2] | 2.06 ± 0.23 | 2.36 ± 0.39 |  | 
TLSKPSPMPVSQECFETLRGDERI [CHGA] | 4.81 ± 0.26 | 4.75 ± 0.17 |  | 
IQNAHKNSTGSGRGKKLMVLTEPI [TPRG1] | 3.89 ± 0.24 | 3.66 ± 0.28 |  | 
FRETEKSRWSEASRAILQRVQAAA [ALKBH7] | 3.21 ± 0.18 | 3.3 ± 0.16 |  | 
VPQRTAGGDVPERELYIRWLEVAA [MYORG] | 2.62 ± 0.19 | 2.77 ± 0.3 |  | 
GTAGDSMSYHSGSVFSARDRDPNS [TNXB] | 4.66 ± 0.18 | 4.87 ± 0.14 |  | 
SNRHGHTCLMISCYKGHKEIAQYL [FEM1C] | 2.68 ± 0.55 | 2.43 ± 0.39 |  | 
PSMNPDGYEVAAAQGPNKPGYLVG [CPN1] | 4.33 ± 0.19 | 4.25 ± 0.24 |  | 
QPYTCSICRRNFSRRSSLLRHQKL [ZNF75A] | 3.43 ± 0.37 | 3.71 ± 0.35 |  | 
VHSSPVSSPSVSGPRRLVSCLSSQ [SPACA3] | 3.38 ± 0.2 | 3.54 ± 0.18 |  | 
YLNHVRAASPQDLAGGYTSSLACH [MNAT1] | 2.85 ± 0.39 | 2.95 ± 0.34 |  | 
LPIVAIENILSFMSYDEISQLRLV [FBXO28] | 2.94 ± 0.5 | 2.81 ± 0.43 |  | 
THTKEQILELVVLEQFVAILPKEL [ZNF24] | 3.04 ± 0.72 | 2.54 ± 0.66 |  | 
QALEKIFLQKVAQMPQEEVELLPP [BRD3] | 2.63 ± 0.26 | 2.83 ± 0.4 |  | 
TCLTGVLGVGLGVEISRRLRHSNP [SPNS1] | 2.36 ± 0.22 | 2.09 ± 0.36 |  | 
SVPLSLCVSSHLALPAQHHWESW [CLPTM1] |  |  | 2.22 ± 0.1 | 2.33 ± 0.25
TKNKSKHALRKKQLKRQKRDYIHS [FAM9B] | 3.71 ± 0.1 | 3.76 ± 0.1 |  | 
MRGRIYLEPPTMRKKRLLDRKVLL [GOLPH3L] | 2.34 ± 0.27 | 2.47 ± 0.29 |  | 
TSTGSAASSGSNSSASSEQGLLGR [SPRY1] | 5.07 ± 0.28 | 5.17 ± 0.099 |  | 

Sequence | protein stability index [1] | protein stability index [2] | protein stability index (treatment: DMSO, c terminus: native) | protein stability index (treatment: MLN4924 1 uM, 8 h, c terminus: native)
KCPWMEGGEMSPQVETSIEGTIPF [INTS4] | 4.08 ± 0.27 | 4.03 ± 0.2 |  | 
VNDNAPEVLLASLANPVLESTPVG [PCDHGC5] | 4.55 ± 0.18 | 4.51 ± 0.12 |  | 
QNFLDPGYPLPKLDMNFSLENREE [ZNF449] | 5.02 ± 0.24 | 4.74 ± 0.29 |  | 
ENFKGLAIPYLEHIIHVWEETGSR [VPS39] | 2.52 ± 0.32 | 2.48 ± 0.4 |  | 
VDEKGEKVRPSHKRCIVILREIPE [LARP4] | 2.9 ± 0.11 | 3.07 ± 0.037 |  | 
QGPTPRYFTWDEVAQRSGCEERWL [FADS1] | 3.43 ± 0.27 | 3.39 ± 0.24 |  | 
ISPWNLPLYLLTWKIAPAMAAGNT [ALDH8A1] | 3.06 ± 0.53 | 3.05 ± 0.62 |  | 
EEANADLEVKIRDWYQRQRPSEIK [KRT16] | 4.14 ± 0.64 | 4.72 ± 0.27 |  | 
LLGFNLTFVFLASLLVLIEPVAAG [CLCN6] | 3.45 ± 0.23 | 3.14 ± 0.36 |  | 
KLPPYLIFCIKRFTKNNFFVEKNP [USP39] | 3.02 ± 0.12 | 2.75 ± 0.4 |  | 
MFSFNMFDHPIPRVFQNRFSTQYR [UFD1] | 2.13 ± 0.17 | 2.22 ± 0.22 |  | 
SKPGVYTSYKPYLNRDEEIIKQLQ [DENND6A] |  | 3.35 ± 0.42 |  | 
GLEHAAAGGSSGTTARERPCVRPG [FBF1] | 4.96 ± 0.24 | 4.95 ± 0.2 |  | 
TIKRSSQTGEWQNIAIMTEEPELS [GFOD1] | 4.42 ± 0.33 | 4.26 ± 0.43 |  | 
ITWIAGAVTKDFKLTDKHETVVSY [ACSBG2] | 2.3 ± 0.25 | 2.03 ± 0.33 |  | 
DHKRETERVVREALEKLRSEMEEE [ZMYND11] | 4.99 ± 0.18 | 5.35 ± 0.12 |  | 
TVIHDFLFSLKESPEKFQIEANFP [FAF2] | 2.14 ± 0.37 | 2.03 ± 0.19 |  | 
MWWRGCKIKAIMALVAAILLLVII [VAMP4] | 2.89 ± 0.096 | 2.855 ± 0.027 |  | 
IQPSSEGLGPTSEPFPSSDDSPRS [SPAG8] | 5.41 ± 0.21 | 5.35 ± 0.15 |  | 
NVGRVHRVAKKLQSGLVWTNCWLI [ALDH8A1] | 3.04 ± 0.41 | 2.61 ± 0.49 |  | 
ADDESLLRTSNGQPVKTAGEITQH [DNAAF3] | 5.26 ± 0.35 | 5.26 ± 0.2 |  | 
GDMNHEWIGNEWLPSLGLPQYRSY [PPFIA4] | 2.41 ± 0.73 | 2.8 ± 0.38 |  | 
VAAELLNHLLESMPLREGSSFQDL [HES6] | 3.11 ± 0.69 | 3.35 ± 0.79 |  | 

Sequence | protein stability index [1] | protein stability index [2] | protein stability index (treatment: DMSO, c terminus: native) | protein stability index (treatment: MLN4924 1 uM, 8 h, c terminus: native)
EEDSFYRSSYPQQQGLGASYRTES [TBX5] | 4.37 ± 0.2 | 4.22 ± 0.15 |  | 
VRLGSFRSPRAGAGALLRLPSERL [PRPH] | 2.96 ± 0.16 | 3.23 ± 0.24 |  | 
ADPMDWSPSNVQKWLLWTEHQYRL [SPDEF] | 2.47 ± 0.21 | 2.43 ± 0.35 |  | 
LCIHTGRELRCKVFPIKHYQDKIR [TRIB1] | 2.27 ± 0.52 | 2.18 ± 0.18 |  | 
ASENHGCEHECVNADGSYLCQCHE [MATN2] | 5.46 ± 0.17 | 5.49 ± 0.38 |  | 
LTSDLYAPMVAGALARLGTVTVIS [SLC25A39] | 2.92 ± 0.4 | 2.67 ± 0.69 |  | 
GTGAVVTSLFMTPLDVVKVRLQSQ [SLC25A39] | 2.18 ± 0.11 | 2.06 ± 0.52 |  | 
STPVCSQKVVVTTPLHRDKTPLHQ [MYBL2] | 3.92 ± 0.22 | 4.26 ± 0.24 |  | 
PRTSQSEETRVWHRRDGKWQNVHF [CAMK2B] | 3.29 ± 0.3 | 3.39 ± 0.22 |  | 
RRNEETPEEGQQPWLCGESFTLAD [GDAP1] | 5.02 ± 0.13 | 4.99 ± 0.3 |  | 
IRVRGQRASRLQAPVLVAAPHSTF [LPCAT4] | 2.6 ± 0.17 | 2.73 ± 0.22 |  | 
SGPEAARAGGWVSGEEFYMLTRRV [PKD2L1] | 2.69 ± 0.29 | 2.96 ± 0.49 |  | 
LYSRTGDIVEFVCKSGYHPTKSHS [CFHR2] | 2.15 ± 0.16 | 2.45 ± 0.4 |  | 
ADSGADPKGEPGSKQSPPMASSPI [FBF1] | 5.44 ± 0.26 | 5.51 ± 0.15 |  | 
DLNSKGKKREFRFHPIKETVVEEP [INTS3] | 3 ± 0.65 | 3.64 ± 0.53 |  | 
ANGEVTYSFRKLPDTQLLKFQLNK [PCDHGA10] | 2.83 ± 0.33 | 2.85 ± 0.24 |  | 
KYRSYEEFKADAQLLLHNTVIFYG [ZMYND11] | 2 ± 0.46 | 2.07 ± 0.33 |  | 
KPDGTVEQIGHILVSWLPRLNAYR [NET1] | 2.21 ± 0.52 | 2.1 ± 0.1 |  | 
ITLDGGVLVHVQKWDGKSTTIKRK [FABP4] | 2.46 ± 0.38 | 3.06 ± 0.1 |  | 
AEAEPEDQDEGEWGLDQEQVFSLG [ZBED1] | 5.34 ± 0.44 | 5.52 ± 0.44 |  | 
GIDIMKTSFPGRGSIPEFFHIMKR [AASDHPPT] | 2.33 ± 0.59 | 2.501 ± 0.013 |  | 
EIPKNCVVAAVGKELIIFRLVAPT [WDR41] | 2.69 ± 0.6 | 2.28 ± 0.43 |  | 
MSRQFTCKSGAAAKGGFSGCSAVL [KRT71] | 2.59 ± 0.35 | 2.18 ± 0.43 |  | 

Sequence | protein stability index [1] | protein stability index [2] | protein stability index (treatment: DMSO, c terminus: native) | protein stability index (treatment: MLN4924 1 uM, 8 h, c terminus: native)
GSGGTRGPPSRGGHMDDGGYSMNF [RBMX] | 3.96 ± 0.24 | 4 ± 0.43 |  | 
HDSANCELPLLTPCSKAVMSQALK [ETS2] | 3.34 ± 0.28 | 3.45 ± 0.24 |  | 
VPVLKPMDLMVEVSPRRIFANGHT [PPP2R2C] | 2.59 ± 0.48 | 2.75 ± 0.14 |  | 
AISPGRFPEALDELPLPPFLQPLD [ANKRD9] | 3.91 ± 0.32 | 3.96 ± 0.18 |  | 
IQGQNKEMLAAACQMFLGKTEAEI [FLOT1] | 3.49 ± 0.15 | 3.42 ± 0.33 |  | 
MHANVEDRGIKGDITPLMAAANGG [ANKRD17] | 4.58 ± 0.14 | 4.67 ± 0.086 |  | 
YLPQCSYFKCVQKDIQPYMRRMVA [CCND2] | 2.11 ± 0.28 | 2.01 ± 0.33 |  | 
AFQLLRRFVQAEGRRATLQRLVEA [TRADD] | 2.19 ± 0.15 | 2.26 ± 0.38 |  | 
SFGACLREETPRMPSWASARDRQP [ELOA2] | 3.4 ± 0.34 | 3.13 ± 0.32 |  | 
NAGKVNLPKELPADAVNLTIPASL [PLAGL1] | 4.4 ± 0.25 | 4.43 ± 0.22 |  | 
VLAIPRRLRVELECEEGELSFYDA [TRIM35] | 2.96 ± 0.2 | 3.08 ± 0.23 |  | 
LHQTVERIHVGKKYGDIPRGIFVV [LSM1] | 2.76 ± 0.59 | 2.59 ± 0.63 |  | 
APPLQAETPGSAVDYPLHDLVLHT [TNXB] | 4.16 ± 0.23 | 4.17 ± 0.2 |  | 
PCATVSVFPGARLLTIGDANGEIQ [CARM1] | 3.31 ± 0.38 | 3.28 ± 0.16 |  | 
GDDQPSETDHLSMEEEDPMPRQIS [TPRG1] | 5.47 ± 0.17 | 5.64 ± 0.22 |  | 
RHFGTILNYLRDGSVPLPESTREL [KCTD13] | 2.78 ± 0.16 | 2.94 ± 0.41 |  | 
ENVKDVPFGFQTVTSDVNKLSSFY [SERPINB5] | 2.74 ± 0.15 | 3.09 ± 0.46 |  | 
SVVSYTLKDIHDDQDYLHSLGKAR [FLOT1] | 3.43 ± 0.3 | 3.54 ± 0.28 |  | 
RYTGTTPSPPPGSHYTSPSENMWN [CARM1] | 3.48 ± 0.23 | 3.57 ± 0.23 |  | 
ITWNRVVLLHGPPGTGKTSLCKAL [TRIP13] | 2.32 ± 0.58 | 2.13 ± 0.2 |  | 

Reference: the supplement of paper PMC10567573
